# Measured values reported in article PMC10004559, “Identification of residues involved in allosteric signal transmission from amino acid binding site of pyruvate kinase muscle isoform 2” (PLOS ONE, 2023).
# B1: PKM2 N70D (enzyme)
# chain: not shown
# notes: Pyruvate kinase muscle isoform 2 (PKM2), human, UniProt P14618, with N70D; cloned in pET28a; not shown: His6, N-terminal, kept
# B2: PKM2 R106A (enzyme)
# chain: not shown
# notes: Pyruvate kinase muscle isoform 2 (PKM2), human, UniProt P14618, with R106A; cloned in pET28a; No tag cleavage is described
# B3: PKM2 N75L (enzyme)
# chain: not shown
# notes: Pyruvate kinase muscle isoform 2 (PKM2), human, UniProt P14618, with N75L; cloned in pET28a; No tag cleavage is described
# Target: the molecule itself
# Assay: SEC; 0.1 mg/ml enzyme in storage buffer (20-50 mM Tris-HCl pH 7.5, 150 mM KCl, 5% glycerol, 0.5 mM EDTA) with 10 mM THP, incubated 15 min without or with 10 mM Asn/Asp/Val/Cys; Superdex 200 10/300 GL, 0.5 ml/min; self-association, tetramer against dimer/monomer
row,Protein,stoichiometry N
1,B1,4
2,B2,4
3,B3,4
